Assay results taken from US7045613B2, “IKK-αproteins, nucleic acids and methods” (Amgen, Inc., priority 1997, dated 2006).

B1: IKK-α(307-745): deletion mutant IKK-α protein lacking most of the N-terminal kinase domain; kinase-inactive (protein)
chain: ILNLKIVHILNMTSAKIISFLLPPDESLHSLQSRIERETGINTGSQELLSETGISLDPRKPASQCVLDGVRGCDSYMVYLFDKSKTVYEGPFASRSLSDCVNYIVQDSKIQLPIIQLRKVWAEAVHYVSGLKEDYSRLFQGQRAAMLSLLRYNANLTKMKNTLISASQQLKAKLEFFHKSIQLDLERYSEQMTYGISSEKMLKAWKEMEEKAIHYAEVGVIGYLEDQIMSLHAEIMELQKSPYGRRQGDLMESLEQRAIDLYKQLKHRPSDHSYSDSTEMVKIIVHTVQSQDRVLKELFGHLSKLLGCKQKIIDLLPKVEVALSNIKEADNTVMFMQGKRQKEIWHLLKIACTQSSARSLVGSSLEGAVTPQTSAWLPPTSAEHDHSLSCVVTPQDGETSAQMIEENLNCLGHLSTIIHEANEEQGNSMMNLDWSWLTE
B2: IKK-α: novel human IκB kinase, full conceptual translate SEQ ID NO:4 (protein)
chain: MERPPGLRPGAGGPWEMRERLGTGGFGNVCLYQHRELDLKIAIKSCRLELSTKNRERWCHEIQIMKKLNHANVVKACDVPEELNILIHDVPLLAMEYCSGGDLRKLLNKPENCCGLKESQILSLLSDIGSGIRYLHENKIIHRDLKPENIVLQDVGGKIIHKIIDLGYAKDVDQGSLCTSFVGTLQYLAPELFENKPYTATVDYWSFGTMVFECIAGYRPFLHHLQPFTWHEKIKKKDPKCIFACEEMSGEVRFSSHLPQPNSLCSLIVEPMENWLQLMLNWDPQQRGGPVDLTLKQPRCFVLMDHILNLKIVHILNMTSAKIISFLLPPDESLHSLQSRIERETGINTGSQELLSETGISLDPRKPASQCVLDGVRGCDSYMVYLFDKSKTVYEGPFASRSLSDCVNYIVQDSKIQLPIIQLRKVWAEAVHYVSGLKEDYSRLFQGQRAAMLSLLRYNANLTKMKNTLISASQQLKAKLEFFHKSIQLDLERYSEQMTYGISSEKMLKAWKEMEEKAIHYAEVGVIGYLEDQIMSLHAEIMELQKSPYGRRQGDLMESLEQRAIDLYKQLKHRPSDHSYSDSTEMVKIIVHTVQSQDRVLKELFGHLSKLLGCKQKIIDLLPKVEVALSNIKEADNTVMFMQGKRQKEIWHLLKIACTQSSARSLVGSSLEGAVTPQTSAWLPPTSAEHDHSLSCVVTPQDGETSAQMIEENLNCLGHLSTIIHEANEEQGNSMMNLDWSWLTE
B3: NIK(624-947): kinase-inactive mutant of NIK comprising its TRAF2-interacting C-terminal domain (protein, UniProt Q99558 624-947, looked up, fragment)
chain: PLTAQAIQEGLRKEPIHRVSAAELGGKVNRALQQVGGLKSPWRGEYKEPRHPPPNQANYHQTLHAQPRELSPRAPGPRPAEETTGRAPKLQPPLPPEPPEPNKSPPLTLSKEESGMWEPLPLSSLEPAPARNPSSPERKATVPEQELQQLEIELFLNSLSQPFSLEEQEQILSCLSIDSLSLSDDSEKNPSKASQSSRDTLSSGVHSWSSQAEARSSSWNMVLARGRPTDTPSYFNGVKVQIQSLNGEHLHIREFHRVKVGDIATGISSQIPAAAFSLVTKDGQPVRYDMEVPDSGIDLQCTLAPDGSFAWSWRVKHGQLENRP

Assays:
NIK = target: T1, NIK (Homo sapiens, UniProt Q99558); assay: Coimmunoprecipitation with Myc-tagged NIK in 293 cells; assay type: binding; conditions: Flag-tagged protein coexpressed with Myc-NIK, anti-Flag immunoprecipitation
T1 construct: expressed in transfected cells; host or cells: 293 human embryonic kidney cells
T1 sequence (Q99558 whole entry): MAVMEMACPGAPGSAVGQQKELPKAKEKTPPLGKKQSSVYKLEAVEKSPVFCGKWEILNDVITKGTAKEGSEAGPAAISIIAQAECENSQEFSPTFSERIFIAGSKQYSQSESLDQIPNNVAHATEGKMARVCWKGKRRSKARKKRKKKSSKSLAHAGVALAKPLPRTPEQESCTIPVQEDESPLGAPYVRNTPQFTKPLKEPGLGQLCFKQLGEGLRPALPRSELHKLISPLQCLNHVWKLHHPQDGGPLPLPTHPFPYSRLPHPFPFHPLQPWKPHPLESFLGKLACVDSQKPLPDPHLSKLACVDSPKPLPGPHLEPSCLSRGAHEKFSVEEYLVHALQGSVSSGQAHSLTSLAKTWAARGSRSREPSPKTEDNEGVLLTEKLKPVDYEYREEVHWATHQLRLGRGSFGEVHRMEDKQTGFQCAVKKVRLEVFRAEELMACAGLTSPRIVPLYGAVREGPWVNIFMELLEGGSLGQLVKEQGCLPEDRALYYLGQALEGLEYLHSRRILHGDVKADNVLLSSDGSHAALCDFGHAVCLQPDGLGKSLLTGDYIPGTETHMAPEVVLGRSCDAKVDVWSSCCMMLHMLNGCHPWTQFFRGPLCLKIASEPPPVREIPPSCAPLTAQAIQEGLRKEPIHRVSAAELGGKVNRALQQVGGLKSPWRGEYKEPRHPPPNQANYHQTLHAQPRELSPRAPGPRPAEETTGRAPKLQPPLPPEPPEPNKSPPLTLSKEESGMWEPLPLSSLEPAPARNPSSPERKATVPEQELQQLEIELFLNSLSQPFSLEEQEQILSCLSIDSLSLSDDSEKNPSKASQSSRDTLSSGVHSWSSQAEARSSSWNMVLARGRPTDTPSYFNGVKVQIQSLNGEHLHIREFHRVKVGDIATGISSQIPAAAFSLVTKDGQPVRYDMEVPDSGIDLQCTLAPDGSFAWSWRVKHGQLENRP
From the text: (§1) The interaction of IKK-α with NIK was confirmed in mammalian cell coimmunoprecipitation assays. Human IKK-α containing an N-terminal Flag epitope tag was transiently coexpressed in 293 human embryonic kidney cells with Myc epitope-tagged NIK or HA epitope-tagged TRAF proteins. Cell lysates were immunoprecipitated using a monoclonal antibody against the Flag epitope, and coprecipitating NIK or TRAF proteins were detected by immunoblot analysis with an anti-Myc or anti-HA monoclonal antibodies.

[1] = test system: NF-κB-dependent reporter gene; assay: NF-κB-dependent reporter gene assay, 293 cells; assay type: cell-based, human; conditions: overexpression in 293 cells
From the text: (§2) To investigate a possible role for IKK-α in NF-κB activation, we examined if transient overexpression of IKK-α might activate an NF-κB-dependent reporter gene. An E-selectin-luciferase reporter construct (Schindler and Baichwal, 1994) and a IKK-α expression vector were cotransfected into HeLa cells. IKK-α expression activated the reporter gene in a dose-dependent manner, with a maximal induction of luciferase activity of about 6 to 7-fold compared to vector control. Similar results were obtained in 293 cells, where IKK-α overexpression induced reporter gene activity approximately 4-fold. […] Thus, IKK-α induces NF-κB activation when overexpressed.
Overexpression of IKK-α(307-745) blocked TNF- and IL-1-induced reporter gene activation similar to overexpression of NIK(624-947). IKK-α(307-745) was also found to inhibited NF-κB-dependent reporter gene activity elicited by overexpression of TRAF2, TRAF6 and NIK.

TRAF2 = assay: Coimmunoprecipitation with HA-tagged TRAF2 in 293 cells; assay type: binding, human
From the text: as §1

[2] = test system: NF-κB-dependent reporter gene; assay: E-selectin-luciferase NF-κB-dependent reporter gene assay, HeLa cells; assay type: cell-based, human; conditions: transient overexpression in HeLa cells, compared to vector control
From the text: as §2

TRAF3 = target: T2, TRAF3 (Homo sapiens, UniProt Q13114); assay: Coimmunoprecipitation with HA-tagged TRAF3 in 293 cells; assay type: binding; conditions: Flag-tagged protein coexpressed with HA-TRAF3
T2 construct: expressed in transfected cells; host or cells: 293 human embryonic kidney cells
T2 sequence (Q13114 1-568): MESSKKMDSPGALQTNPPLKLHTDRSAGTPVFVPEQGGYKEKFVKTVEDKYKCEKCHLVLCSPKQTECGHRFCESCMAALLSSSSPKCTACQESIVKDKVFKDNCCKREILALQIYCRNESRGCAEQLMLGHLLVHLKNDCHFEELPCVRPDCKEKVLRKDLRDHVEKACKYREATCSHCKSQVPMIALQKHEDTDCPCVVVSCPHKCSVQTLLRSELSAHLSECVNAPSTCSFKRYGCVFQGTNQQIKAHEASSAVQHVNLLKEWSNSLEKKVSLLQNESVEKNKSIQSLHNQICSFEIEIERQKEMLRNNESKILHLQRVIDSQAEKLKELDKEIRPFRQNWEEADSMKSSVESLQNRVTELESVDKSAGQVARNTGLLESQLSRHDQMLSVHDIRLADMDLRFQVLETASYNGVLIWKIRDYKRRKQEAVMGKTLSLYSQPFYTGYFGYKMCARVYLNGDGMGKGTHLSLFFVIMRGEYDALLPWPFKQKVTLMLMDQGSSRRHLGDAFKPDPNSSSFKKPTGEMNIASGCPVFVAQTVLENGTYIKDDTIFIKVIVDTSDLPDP
From the text: as §1

Molecule	coprecipitation / association with NIK (NIK)	NF-κB-dependent reporter gene activity elicited by overexpression of TRAF2, TRAF6 and NIK [1]	TNF- and IL-1-induced reporter gene activation [1]	association with TRAF2 (TRAF2; Flag-tagged protein coexpressed with HA-TRAF2, without NIK)	coprecipitation of TRAF2 when NIK coexpressed (TRAF2; NIK coexpressed with IKK-α and TRAF2)	maximal induction of luciferase activity [2]	induced reporter gene activity [1]	association with TRAF3 (TRAF3)
B1	able to associate with NIK	inhibited	blocked	–	–	–	–	–
B2	able to coprecipitate NIK	–	–	failed to associate	strong coprecipitation	6 to 7 fold	approximately 4 fold	failed to associate
B3	–	–	blocked	–	–	–	–	–
